Data taken from patent US20230348603A1 (VERSEAU THERAPEUTICS, published 2023).

T1: Human VSIG4-L-His (human, UniProt Q9Y279 20-283)
T1 construct: long isoform ECD with His tag; also called hVSIG4-L
T1 sequence: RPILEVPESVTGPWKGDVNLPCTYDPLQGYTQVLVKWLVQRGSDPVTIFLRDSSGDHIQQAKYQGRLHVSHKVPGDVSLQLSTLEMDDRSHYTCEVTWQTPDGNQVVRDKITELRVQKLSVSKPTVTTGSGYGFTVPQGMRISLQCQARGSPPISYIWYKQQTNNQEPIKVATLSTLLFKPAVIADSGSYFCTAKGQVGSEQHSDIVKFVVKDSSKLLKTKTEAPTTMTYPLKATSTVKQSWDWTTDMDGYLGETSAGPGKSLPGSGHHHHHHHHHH

T2: Cynomolgus Monkey VSIG4-L-His (cynomolgus monkey)
T2 construct: ECD with His tag; also called cyVSIG4-L; cyno VSIG4-L-His
T2 chain: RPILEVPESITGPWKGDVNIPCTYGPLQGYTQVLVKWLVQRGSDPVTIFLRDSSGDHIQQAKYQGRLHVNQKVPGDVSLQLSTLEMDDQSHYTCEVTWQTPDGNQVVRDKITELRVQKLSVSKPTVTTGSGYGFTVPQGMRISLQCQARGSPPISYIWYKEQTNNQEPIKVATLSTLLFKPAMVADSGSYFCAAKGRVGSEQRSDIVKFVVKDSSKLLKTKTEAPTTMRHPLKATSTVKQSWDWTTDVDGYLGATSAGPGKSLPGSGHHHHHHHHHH


How the values were obtained:
Human VSIG4-L-His = target: T1, Human VSIG4-L-His; assay: BLI, IgG on AHC sensor, antigen 100 nM
[1] = target: T2, Cynomolgus Monkey VSIG4-L-His; assay: BLI, IgG on AHC sensor, antigen 100 nM

Binder | KD relative to parental chimera (Human VSIG4-L-His) [fold] | KD relative to parental chimera [1] [fold]
h14D12.A humanized IgG4 (S228P) kappa (antibody, V domains shown) VH: QIQLVQSGSELKKPGASVKVSCKASGYTFTNYGMNWVRQAPGQGLEWMGLINTYTGEPTYADGFTGRFVFSLDTSASTAYLQISSLKAEDTAVYFCARERIYGYLHYFDYWGQGTTVTVSS VL: DVVMTQSPDSLAVSLGERATINCKASQSVDYDGDSYMNWYQQKPGQPPKLLIYAASNLESGVPDRFSGSGSGTDFTLTISSLQAEDVAVYYCQQSNEDPRTFGGGTKLEIKR | 1.1 | 1.2
h14D12.B humanized IgG4 (S228P) kappa (antibody, V domains shown) VH: QIQLVQSGAEVKKPGASVKVSCKASGYTFTNYGMNWVRQAPGQGLEWMGLINTYTGEPTYADKFQGRVTMTLDTSTSTAYMELSSLRSEDTAVYYCARERIYGYLHYFDYWGQGTTVTVSS VL: DVVMTQSPDSLAVSLGERATINCKASQSVDYDGDSYMNWYQQKPGQPPKLLIYAASNLESGVPDRFSGSGSGTDFTLTISSLQAEDVAVYYCQQSNEDPRTFGGGTKLEIKR | 1 | 1.3
h14D12.C humanized IgG4 (S228P) kappa (antibody, V domains shown) VH: QIQLVQSGAEVKKPGASVKVSCKASGYTFTNYGMNWVRQAPGQGLEWMGLINTYTGEPTYADKFQGRVTFTLDTSASTAYMELSSLRSEDTAVYFCARERIYGYLHYFDYWGQGTTVTVSS VL: DVVMTQSPDSLAVSLGERATINCKASQSVDYDGDSYMNWYQQKPGQPPKLLIYAASNRESGVPDRFSGSGSGTDFTLTISSLQAEDVAVYYCQQSNEDPRTFGGGTKLEIKR | 1.4 | 1.5
h14D12.F humanized IgG4 (S228P) kappa (antibody, V domains shown) VH: QIQLVQSGAEVKKPGASVKVSCKASGYTFTNYGMNWVRQAPGQGLEWMGLINTYTGEPTYADKFQGRVTMTLDTSTSTAYMELSSLRSEDTAVYYCARERIYGYLHYFDYWGQGTTVTVSS VL: DVQMTQSPSSLSASVGDRVTITCRASQSVDYDGDSYMNWYQQKPGKAPKLLIYAASNLESGVPSRFSGSGSGTDFTLTISSLQPEDFATYYCQQSNEDPRTFGGGTKLEIKR | 0.8 | 1
h14D12.H humanized IgG4 (S228P) kappa (antibody, V domains shown) VH: QIQLVQSGAEVKKPGASVKVSCKASGYTFTNYGMNWVRQAPGQGLEWMGLINTYTGEPTYADKFQGRVTFTLDTSASTAYMELSSLRSEDTAVYFCARERIYGYLHYFDYWGQGTTVTVSS VL: DIQMTQSPSSLSASVGDRVTITCRASQSVDYDGDSYMNWYQQKPGKAPKLLIYAASNLESGVPSRFSGSGSGTDFTLTISSLQPEDFATYYCQQSNEDPRTFGGGTKLEIKR | 1.1 | 1.2
h14C05.H humanized IgG4 (S228P) kappa (antibody, V domains shown) VH: QVQLVQSGAEVKKPGASVKVSCKASGYTFTNYGMNWVRQAPGQGLEWMGSINTYTGEATYAQKFQGRVTMTLDTSTSTVYMELSSLRSEDTAVYYCARGDYYGRGTWFAYWGQGTLVTVSS VL: ETQVTQSPSSLSASVGDRVTITCRASQDVSTAVAWYQQKPGKAPKLLIYSASYRYPGVPSRFSGSGSGTDFTLTISSLQPEDFATYYCQQDYSSPWTFGGGTKLEIKR | 1 | 0.9
h14C05.E humanized IgG4 (S228P) kappa (antibody, V domains shown) VH: QVQLVQSGAEVKKPGASVKVSCKASGYTFTNYGMNWVRQAPGQGLEWMGSINTYTGEATYADKFQGRVTMTLDTSTNTAYMELSSLRSEDTAVYYCARGDYYGRGTWFAYWGQGTLVTVSS VL: ETVVTQSPATLSLSPGERATLSCRASQDVSTAVAWYQQKPGQAPRLLIYSASYRYPGIPARFSGSGSGTDFTLTISSLEPEDFAVYYCQQDYSSPWTFGGGTKLEIKR | 0.5 | 0.3
h14D12.D humanized IgG4 (S228P) kappa (antibody) heavy: not shown light: DVQMTQSPSSLSASVGDRVTITCRASQSVDYDGDSYMNWYQQKPGKAPKLLIYAASNLESGVPSRFSGSGSGTDFTLTISSLQPEDFATYYCQQSNEDPRTFGGGTKLEIKRTVAAPSVFIFPPSDEQLKSGTASVVCLLNNFYPREAKVQWKVDNALQSGNSQESVTEQDSKDSTYSLSSTLTLSKADYEKHKVYACEVTHQGLSSPVTKSFNRGEC | 1 | 1
h14D12.E humanized IgG4 (S228P) kappa (antibody, V domains shown) VH: QIQLVQSGSELKKPGASVKVSCKASGYTFTNYGMNWVRQAPGQGLEWMGLINTYTGEPTYADGFTGRFVFSLDTSVSTAYLQISSLKAEDTAVYYCARERIYGYLHYFDYWGQGTTVTVSS VL: DVQMTQSPSSLSASVGDRVTITCRASQSVDYDGDSYMNWYQQKPGKAPKLLIYAASNLESGVPSRFSGSGSGTDFTLTISSLQPEDFATYYCQQSNEDPRTFGGGTKLEIKR | 0.9 | 0.9
h14D12.G humanized IgG4 (S228P) kappa (antibody) heavy: not shown light: DIQMTQSPSSLSASVGDRVTITCRASQSVDYDGDSYMNWYQQKPGKAPKLLIYAASNLESGVPSRFSGSGSGTDFTLTISSLQPEDFATYYCQQSNEDPRTFGGGTKLEIKRTVAAPSVFIFPPSDEQLKSGTASVVCLLNNFYPREAKVQWKVDNALQSGNSQESVTEQDSKDSTYSLSSTLTLSKADYEKHKVYACEVTHQGLSSPVTKSFNRGEC | 1 | 1.1
h14C05.D humanized IgG4 (S228P) kappa (antibody, V domains shown) VH: QVQLVQSGSELKKPGASVKVSCKASGYTFTNYGMNWVRQAPGQGLEWMGSINTYTGEATYADGFTGRFVFSLDTSVNTAYLQISSLKAEDTAVYYCARGDYYGRGTWFAYWGQGTLVTVSS VL: ETVVTQSPATLSLSPGERATLSCRASQDVSTAVAWYQQKPGQAPRLLIYSASYRYPGIPARFSGSGSGTDFTLTISSLEPEDFAVYYCQQDYSSPWTFGGGTKLEIKR | 0.6 | 0.5
h16E10.C humanized IgG4 (S228P) kappa (antibody, V domains shown) VH: QVQLVQSGAEVKKPGASVKVSCKASGYTFTNYWLGWVRQAPGQGLEWMGDIYPGGGYTNYNEKFQGRVTMTADTSTSTAYMELSSLRSEDTAVYYCAKFYYYGSSYYFDSWGQGTTVTVSS VL: DIVMTQSPDSLAVSLGERATINCKSSQSLLNSGNQENYLAWYQQKPGQPPKLLIYGASTRESGVPDRFSGSGSGTDFTLTISSLQAEDVAVYYCQNDHSYPLTFGGGTKLEIKR | 1.7 | 1.1
h16E10.D humanized IgG4 (S228P) kappa (antibody) heavy: not shown light: DIVLTQSPLSLPVTPGEPASISCRSSQSLLNSGNQENYLAWYLQKPGQSPQLLIYGASTRESGVPDRFSGSGSGTDFTLKISRVEAEDVGVYYCQNDHSYPLTFGGGTKLEIKRTVAAPSVFIFPPSDEQLKSGTASVVCLLNNFYPREAKVQWKVDNALQSGNSQESVTEQDSKDSTYSLSSTLTLSKADYEKHKVYACEVTHQGLSSPVTKSFNRGEC | 0.6 | 1.1
h16E10.G humanized IgG4 (S228P) kappa (antibody) heavy: not shown light: DIVMTQSPLSLPVTPGEPASISCRSSQSLLNSGNQENYLAWYLQKPGQSPQLLIYGASTRESGVPDRFSGSGSGTDFTLKISRVEAEDVGVYYCQNDHSYPLTFGGGTKLEIKRTVAAPSVFIFPPSDEQLKSGTASVVCLLNNFYPREAKVQWKVDNALQSGNSQESVTEQDSKDSTYSLSSTLTLSKADYEKHKVYACEVTHQGLSSPVTKSFNRGEC | 0.9 | 0.4
h16E10.E humanized IgG4 (S228P) kappa (antibody) heavy: not shown light: DIVLTQSPLSLPVTPGEPASISCRSSQSLLNSGNQENYLAWYLQKPGQSPQLLIYGASTRESGVPDRFSGSGSGTDFTLKISRVEAEDVGVYYCQNDHSYPLTFGGGTKLEIKRTVAAPSVFIFPPSDEQLKSGTASVVCLLNNFYPREAKVQWKVDNALQSGNSQESVTEQDSKDSTYSLSSTLTLSKADYEKHKVYACEVTHQGLSSPVTKSFNRGEC | 0.8 | 1.3
h16E10.F humanized IgG4 (S228P) kappa (antibody) heavy: not shown light: DIVMTQSPLSLPVTPGEPASISCRSSQSLLNSGNQENYLAWYLQKPGQSPQLLIYGASTRESGVPDRFSGSGSGTDFTLKISRVEAEDVGVYYCQNDHSYPLTFGGGTKLEIKRTVAAPSVFIFPPSDEQLKSGTASVVCLLNNFYPREAKVQWKVDNALQSGNSQESVTEQDSKDSTYSLSSTLTLSKADYEKHKVYACEVTHQGLSSPVTKSFNRGEC | 0.7 | 1
